Measurements reported in the supplement of paper PMC10567573.

B1: HDAC6 (parent)
chain: DLMETTQYMNEGELRVLADTYDSV

Variants of: B1
Assay: protein stability index of a GFP-peptide fusion (GPS, HEK-293T) (PSI 1-6); higher = more stable
Conditions: c terminus: a fixed tail appended
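Also: lentivirally expressed fusions sorted by FACS into six bins by GFP to DsRed ratio, PSI derived from sequencing read proportions per bin multiplied by bin number.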

Protein stability index, by site and new letter:
N10: V 1.8 | S 1.74 | T 2.21 | Y 3.32
E13: S 3.56 | P 3.74 | D 3.9 | L 2.63 | A 3.38 | N 3.96 | T 3.84 | Y 2.83 | Q 4.13 | M 2.65 | R 3.63 | K 3.69 | C 3.37 | W 2.32 | G 4.06 | H 3.2 | F 2.66 | I 2.47 | V 3.53
G12: M 3.18 | L 3.56 | Q 4.16 | S 3.58 | A 2.33 | W 2.03 | T 3.49 | N 4.08 | V 2.85 | H 3.46 | D 4.79 | E 4.82 | Y 2.62 | R 3.71 | F 2.85 | P 4.74 | C 3.07 | I 2.9 | K 3.87
L14: E 2.07 | N 3.03 | W 2.48 | P 4.29 | H 2.29 | D 2.32 | A 2.11 | F 1.74 | V 2.83 | C 1.97 | T 3.56 | Y 1.87 | M 1.62 | Q 2.28 | I 2.26 | G 2.92 | K 2.96 | S 2.21
V16: N 4.06 | G 4.03 | C 2.72 | M 3.99 | Y 3.9 | S 4.42 | I 2.1 | L 3.27 | D 4.54 | W 3.54 | F 3.61 | R 4.01 | T 4.2 | E 4.75 | K 3.91 | A 3.72 | H 4.62 | P 4.81 | Q 4.23
L17: F 2.05 | H 2.12 | Y 1.99 | C 3.03 | T 3.59 | R 2.97 | D 5.03 | I 2.77 | S 4.34 | N 4.55 | A 2.33 | G 3.86 | Q 3.11 | W 2.33 | V 1.64 | K 2.75 | P 4.47 | M 2.01
E11: C 2.47 | V 2.45 | Y 2.43 | A 2.15 | S 2.95 | W 1.89 | N 3.13 | L 2.6 | T 2.9 | F 2 | H 2.78 | I 1.86 | K 2.89 | P 3.65 | G 3.58 | M 3.15 | R 3.19 | Q 2.6 | D 1.69
D19: G 2.6 | I 2.55 | R 2.56 | Q 1.92 | F 2.78 | L 1.64 | E 2.03 | T 1.83 | Y 1.44 | P 2.67 | H 2.42 | K 2.52 | S 2.12 | N 1.79
A18: N 1.65 | D 2.82 | C 2.47 | L 1.75 | I 1.83 | S 2.09 | P 3.97 | G 2.86 | M 1.12 | H 2.06 | F 1.86 | Q 1.62 | E 2.11 | W 1.7 | K 2.18 | R 2.12 | Y 1.87 | T 1.94 | V 2.4
R15: T 2.58 | Y 2.39 | S 2.09 | P 4.61 | C 1.5 | L 1.5 | K 2.27 | N 2.67 | E 2.01 | G 3.24 | F 2.64 | I 2.2 | Q 1.76 | V 2.37 | M 1.89 | H 2.03 | D 3.8 | A 1.77
